Paper PMC9352680, “A comprehensive thermodynamic model for RNA binding by the Saccharomyces cerevisiae Pumilio protein PUF4”

T1: PUF4 RNA-binding domain (Saccharomyces cerevisiae, UniProt P25339 537-888)
T1 sequence: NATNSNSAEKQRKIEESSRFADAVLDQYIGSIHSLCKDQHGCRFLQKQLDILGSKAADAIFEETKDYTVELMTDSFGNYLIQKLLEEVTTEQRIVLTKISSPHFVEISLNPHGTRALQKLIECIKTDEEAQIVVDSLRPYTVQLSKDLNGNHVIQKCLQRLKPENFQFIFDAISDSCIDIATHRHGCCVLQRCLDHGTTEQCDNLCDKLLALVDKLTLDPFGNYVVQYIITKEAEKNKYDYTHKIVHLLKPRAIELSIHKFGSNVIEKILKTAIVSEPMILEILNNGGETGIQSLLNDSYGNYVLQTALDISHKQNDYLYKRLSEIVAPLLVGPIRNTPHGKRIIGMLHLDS


Biological target: T1, PUF4 RNA-binding domain
Assay: Mg; RNA-MaP; 20 mM Na-HEPES pH 7.4, 30 mM KOAc, 0.75 mM MgCl2, 0.1% Tween-20, 5% glycerol, 0.1 mg/mL BSA, 2 mM DTT; 25 C; 0.0125-409.6 nM protein
Details: tags: N-His6-TEV cleaved; C-SNAP kept, Cy3B-labelled; label: tethered on chip by stalled RNA polymerase

Binder	Kd
Ic_S4_P5E.1_K5.1_C5.1_H5.1_A5.1_[T5C]_[T6A]_[A7C]_F5.1_[T8C]_[A10G]_T5.1 (ssRNA) RNA: UUUGACAACUGAUCGUUCUUUCUUGUACACCUGUUCUUUCUCGAUCAGUUGUCUUU	81 nM
Ic_S4_P5E.1_K5.1_C5.1_H5.1_A5.1_[T6C]_[A7G]_F5.1_[T8C]_[T9C]_[A10G]_T5.1 (ssRNA) RNA: UUUGACAACUGAUCGUUCUUUCUUGUAUCGCCGUUCUUUCUCGAUCAGUUGUCUUU	1730 nM
Ic_S4_P5E.1_K5.1_C5.1_H5.1_A5.1_[T5C]_[T6G]_[A7T]_F5.1_[T8C]_[T9A]_[A10T]_T5.1 (ssRNA) RNA: UUUGACAACUGAUCGUUCUUUCUUGUACGUCAUUUCUUUCUCGAUCAGUUGUCUUU	98.8 nM
Ic_S4_P5E.1_K5.1_C5.1_H5.1_A5.1_[T5C]_[T6G]_[A7T]_F5.1_[T8G]_[T9G]_[A10T]_T5.1 (ssRNA) RNA: UUUGACAACUGAUCGUUCUUUCUUGUACGUGGUUUCUUUCUCGAUCAGUUGUCUUU	195 nM
Ic_S4_P5E.1_K5.1_C5.1_H5.1_A5.1_[T5A]_[T6A]_[A7C]_F5.1_[T9A]_T5.1 (ssRNA) RNA: UUUGACAACUGAUCGUUCUUUCUUGUAAACUAAUUCUUUCUCGAUCAGUUGUCUUU	4.37 nM
Ic_S4_P5E.1_K5.1_C5.1_H5.1_A5.1_[T5A]_[T6C]_[A7G]_F5.1_[T9A]_[A10G]_T5.1 (ssRNA) RNA: UUUGACAACUGAUCGUUCUUUCUUGUAACGUAGUUCUUUCUCGAUCAGUUGUCUUU	114 nM
Ic_S4_P5E.1_K5.1_C5.1_H5.1_A5.1_[A7T]_F5.1_[T8A]_[A10G]_T5.1 (ssRNA) RNA: UUUGACAACUGAUCGUUCUUUCUUGUAUUUAUGUUCUUUCUCGAUCAGUUGUCUUU	12.4 nM
Ic_S4_P5E.1_K5.1_C5.1_H5.1_A5.1_[T5C]_[T6C]_F5.1_[T8G]_[T9C]_[A10T]_T5.1 (ssRNA) RNA: UUUGACAACUGAUCGUUCUUUCUUGUACCAGCUUUCUUUCUCGAUCAGUUGUCUUU	650 nM
Ic_S4_P5E.1_K5.1_C5.1_H5.1_A5.1_[T5C]_[A7T]_F5.1_[T8C]_T5.1 (ssRNA) RNA: UUUGACAACUGAUCGUUCUUUCUUGUACUUCUAUUCUUUCUCGAUCAGUUGUCUUU	2.44 nM
Ic_S4_P5E.1_K5.1_C5.1_H5.1_A5.1_[A7T]_F5.1_[T8G]_[T9C]_[A10G]_T5.1 (ssRNA) RNA: UUUGACAACUGAUCGUUCUUUCUUGUAUUUGCGUUCUUUCUCGAUCAGUUGUCUUU	196 nM
Ic_S4_P5E.1_K5.1_C5.1_H5.1_A5.1_[T6A]_[A7C]_F5.1_[T8G]_[T9G]_[A10T]_T5.1 (ssRNA) RNA: UUUGACAACUGAUCGUUCUUUCUUGUAUACGGUUUCUUUCUCGAUCAGUUGUCUUU	510 nM
Ic_S4_P5E.1_K5.1_C5.1_H5.1_A5.1_[T5A]_[T6A]_[A7C]_F5.1_[T8G]_[T9C]_[A10C]_T5.1 (ssRNA) RNA: UUUGACAACUGAUCGUUCUUUCUUGUAAACGCCUUCUUUCUCGAUCAGUUGUCUUU	586 nM
Ic_S4_P5E.1_K5.1_C5.1_H5.1_A5.1_[T6C]_[A7T]_F5.1_[T8A]_[A10C]_T5.1 (ssRNA) RNA: UUUGACAACUGAUCGUUCUUUCUUGUAUCUAUCUUCUUUCUCGAUCAGUUGUCUUU	13.6 nM
Ic_S4_P5E.1_K5.1_C5.1_H5.1_A5.1_[T5G]_[A7C]_F5.1_[T8G]_T5.1 (ssRNA) RNA: UUUGACAACUGAUCGUUCUUUCUUGUAGUCGUAUUCUUUCUCGAUCAGUUGUCUUU	26.3 nM
Ic_S4_P5E.1_K5.1_C5.1_H5.1_A5.1_[A7C]_F5.1_[T8C]_[T9C]_T5.1 (ssRNA) RNA: UUUGACAACUGAUCGUUCUUUCUUGUAUUCCCAUUCUUUCUCGAUCAGUUGUCUUU	141 nM
Ic_S4_P5E.1_K5.1_C5.1_H5.1_A5.1_[T6A]_[A7C]_F5.1_[T8C]_[T9C]_[A10T]_T5.1 (ssRNA) RNA: UUUGACAACUGAUCGUUCUUUCUUGUAUACCCUUUCUUUCUCGAUCAGUUGUCUUU	36.1 nM
Ic_S4_P5E.1_K5.1_C5.1_H5.1_A5.1_[T5C]_[T6G]_[A7T]_F5.1_[T9A]_T5.1 (ssRNA) RNA: UUUGACAACUGAUCGUUCUUUCUUGUACGUUAAUUCUUUCUCGAUCAGUUGUCUUU	4.22 nM
Ic_S4_P5E.1_K5.1_C5.1_H5.1_A5.1_[T5A]_[A7T]_F5.1_[T8G]_[T9C]_[A10C]_T5.1 (ssRNA) RNA: UUUGACAACUGAUCGUUCUUUCUUGUAAUUGCCUUCUUUCUCGAUCAGUUGUCUUU	400 nM
Ic_S4_P5E.1_K5.1_C5.1_H5.1_A5.1_[T5C]_[T6C]_[A7C]_F5.1_[T9A]_[A10G]_T5.1 (ssRNA) RNA: UUUGACAACUGAUCGUUCUUUCUUGUACCCUAGUUCUUUCUCGAUCAGUUGUCUUU	6.26 nM
Ic_S4_P5E.1_K5.1_C5.1_H5.1_A5.1_[T5A]_[T6A]_[A7C]_F5.1_[T9A]_[A10T]_T5.1 (ssRNA) RNA: UUUGACAACUGAUCGUUCUUUCUUGUAAACUAUUUCUUUCUCGAUCAGUUGUCUUU	2.41 nM
Ic_S4_P5E.1_K5.1_C5.1_H5.1_A5.1_[T5C]_[T6C]_F5.1_[T8A]_[T9A]_[A10C]_T5.1 (ssRNA) RNA: UUUGACAACUGAUCGUUCUUUCUUGUACCAAACUUCUUUCUCGAUCAGUUGUCUUU	158 nM
Ic_S4_P5E.1_K5.1_C5.1_H5.1_A5.1_[T5C]_F5.1_[T8A]_[T9A]_[A10T]_T5.1 (ssRNA) RNA: UUUGACAACUGAUCGUUCUUUCUUGUACUAAAUUUCUUUCUCGAUCAGUUGUCUUU	18.5 nM
Ic_S4_P5E.1_K5.1_C5.1_H5.1_A5.1_[T5C]_[A7T]_F5.1_[T8C]_[T9G]_[A10T]_T5.1 (ssRNA) RNA: UUUGACAACUGAUCGUUCUUUCUUGUACUUCGUUUCUUUCUCGAUCAGUUGUCUUU	199 nM
Ic_S4_P5E.1_K5.1_C5.1_H5.1_A5.1_[T5G]_[A7T]_F5.1_[T8A]_[A10T]_T5.1 (ssRNA) RNA: UUUGACAACUGAUCGUUCUUUCUUGUAGUUAUUUUCUUUCUCGAUCAGUUGUCUUU	85.3 nM
UCUCUUUGUAUGUUCUCUCUU (ssRNA) [Ic_S1_P4E.1_K4.1_C4.1_H4.1_A4.1_[A6G]_F4.1_[A9C]_T4.1]	54.6 nM
